This passage reports Kd results from doi:10.1101/2023.04.13.536802 (bioRxiv, 2023).

Where no end group is shown, it is not given here.

The target of the test is recombinant transferrin receptor 1 (TfR1) ectodomain (residues C89-F763) (UniProt Q62351 89-763). As to the kind of experiment: BLI.
recombinant transferrin receptor 1 (TfR1) ectodomain (residues C89-F763), sequence (Q62351 89-763): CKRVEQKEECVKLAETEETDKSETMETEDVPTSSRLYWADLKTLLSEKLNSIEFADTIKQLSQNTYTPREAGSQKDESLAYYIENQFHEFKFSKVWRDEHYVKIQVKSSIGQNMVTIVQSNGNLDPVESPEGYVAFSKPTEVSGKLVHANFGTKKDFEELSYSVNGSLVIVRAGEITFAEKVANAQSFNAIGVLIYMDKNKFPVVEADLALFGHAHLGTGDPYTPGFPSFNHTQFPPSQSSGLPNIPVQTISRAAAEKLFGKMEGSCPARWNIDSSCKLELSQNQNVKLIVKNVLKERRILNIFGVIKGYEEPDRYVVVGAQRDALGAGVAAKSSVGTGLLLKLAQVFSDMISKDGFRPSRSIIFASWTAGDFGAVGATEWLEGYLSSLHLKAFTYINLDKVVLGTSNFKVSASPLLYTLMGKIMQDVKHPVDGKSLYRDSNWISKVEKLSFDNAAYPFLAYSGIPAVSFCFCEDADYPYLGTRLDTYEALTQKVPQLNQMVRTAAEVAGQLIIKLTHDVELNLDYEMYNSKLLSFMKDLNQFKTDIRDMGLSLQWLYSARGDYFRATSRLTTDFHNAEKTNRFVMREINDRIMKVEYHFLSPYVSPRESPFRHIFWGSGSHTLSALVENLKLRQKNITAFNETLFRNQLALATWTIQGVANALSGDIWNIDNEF

B1: T12, 12-mer peptide that binds transferrin receptor 1 (peptide)
peptide: THRPPMWSPVWP
modifications: also: biotin, position not given here
In the case of B1, the equilibrium dissociation constant (Kd) worked out at 26 nM.
